# T1: NAE (NEDD8 E1; Dac-NAE1-UBA3) (UniProt Q13564 1-534; Q8TBC4 1-463)
# T1 construct: Co-expressed in Sf21 cells from pFastBacDual; not shown: Dac tag
# T1 sequence (looked up) 1: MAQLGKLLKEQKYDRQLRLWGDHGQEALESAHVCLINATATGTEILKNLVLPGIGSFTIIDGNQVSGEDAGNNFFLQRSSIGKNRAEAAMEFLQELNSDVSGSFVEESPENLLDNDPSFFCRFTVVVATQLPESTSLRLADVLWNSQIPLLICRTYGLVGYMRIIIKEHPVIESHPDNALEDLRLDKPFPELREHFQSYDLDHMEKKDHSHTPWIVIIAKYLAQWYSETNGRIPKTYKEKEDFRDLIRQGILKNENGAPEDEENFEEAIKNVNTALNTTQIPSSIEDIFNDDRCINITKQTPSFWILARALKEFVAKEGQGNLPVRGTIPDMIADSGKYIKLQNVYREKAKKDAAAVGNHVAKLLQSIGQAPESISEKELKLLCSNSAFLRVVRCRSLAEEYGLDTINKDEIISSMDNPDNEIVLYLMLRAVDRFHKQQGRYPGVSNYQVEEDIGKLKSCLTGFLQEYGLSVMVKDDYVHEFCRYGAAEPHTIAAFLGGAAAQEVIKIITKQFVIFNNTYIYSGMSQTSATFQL
# T1 sequence (looked up) 2: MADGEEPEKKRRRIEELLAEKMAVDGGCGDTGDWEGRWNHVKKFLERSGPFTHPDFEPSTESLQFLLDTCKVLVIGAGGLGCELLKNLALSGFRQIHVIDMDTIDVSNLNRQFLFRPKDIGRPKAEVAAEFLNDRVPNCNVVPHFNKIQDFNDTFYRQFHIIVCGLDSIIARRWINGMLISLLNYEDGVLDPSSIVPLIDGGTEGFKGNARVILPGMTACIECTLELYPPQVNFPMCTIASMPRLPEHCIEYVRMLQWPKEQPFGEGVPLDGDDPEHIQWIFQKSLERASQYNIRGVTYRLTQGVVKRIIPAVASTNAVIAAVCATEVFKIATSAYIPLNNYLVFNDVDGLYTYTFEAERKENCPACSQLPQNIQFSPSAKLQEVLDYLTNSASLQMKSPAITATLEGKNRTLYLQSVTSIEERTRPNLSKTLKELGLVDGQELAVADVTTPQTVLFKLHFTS
# Biological target: T1, NAE (NEDD8 E1; Dac-NAE1-UBA3)
# Experiment: covalent activity-based labelling, SDS-PAGE (FIG. 3C)
# Experimental: E2 probes (14 μM) were mixed with E1 enzyme (3.5 μM) and diluted 10× reaction buffer (500 mM Na_2HPO_4 pH 8) or 10×Ub-ATP buffer (500 mM Na_2HPO_4 pH 8, 20 μM ubiquitin, 20 mM ATP) to a final volume of 15-50 μL. Reactions were incubated at 30° C. and 15 μL aliquots were taken at 1 and 5 h time points which were quenched with 5 μL of reducing SDS-gel loading buffer (NuPAGE LDS loading buffer (4×), 715 mM 2-mercaptoethanol). The quenched reaction solutions were boiled for 5 minute at 100° C. and then 4 μL was analysed by SDS-PAGE (NuPAGE Bis-Tris, 4-12%).
binder,measurement,value
"UBE2M-=CN (enzyme, labelled with TDMA 1 (thioacrylonitrile); 4 of 5 cysteines modified, Legend notes a double band due to degradation of UBE2M) MGSSHHHHHHSSGLEVLFQGPGSPEFPGVDSKAAAMIKLFSLKQQKKEEESAGGTKGSSKKASAAQLRIQKDINELNLPKTCDISFSDPDDLLNFKLVICPDEGFYKSGKFVFSFKVGQGYPHDPPKVKCETMVYHPNIDLEGNVCLNILREDWKPVLTINSIIYGLQYLFLEPNPEDPLNKEAAEVLQNNRRLFEQNVQRSMRGGYIGSTYFERCLK",binding result,binds
